Read-outs that look alike come from different tables or passages of the source. Non-standard residues stand in square brackets, D forms with d. Residues, ends and D or L forms follow the SMILES beside them. *: point of attachment. Dolaproine = CO[C@@H]([C@@H]1CCCN1)[C@@H](C)C(=O)O; Dil = CC[C@H](C)[C@H](NC)[C@@H](CC(=O)O)OC; X1 = C[C@@H](N*)[C@@H](O)c1ccccc1; NMeV = CN[C@H](C(=O)O)C(C)C
What was measured:
[1] = target: Fibroblast activation protein (FAP) on FAP-expressing HT1080-FAP cells (UniProt Q12884); experiment: cell-based or functional assay
[2] = target: Fibroblast activation protein (FAP) on FAP-expressing HT1080-FAP cells (UniProt Q12884); experiment: flow cytometry on HT1080-FAP cells, PE-labeled anti-human Fc secondary antibody, MFI
[3] = system: HCT15 (high Pgp expression); experiment: Cell viability assay (crystal violet staining), payloads, HCT15; format: cell-based; conditions: HCT15, 48 hours incubation, read-out: IC 50 HCT15
Protocol: (§1) The cytotoxic activity of A1B1 cytolysin and MMAE payloads was analyzed via cell-viability assay using the colorectal cancer cell lines HCT15 (high Pgp expression) and HCT116 (low Pgp expression). The day before the assay, cells were seeded and cultivated overnight at 37 °C. Titration of the payloads diluted in medium was added to the cells and incubated for 48 hours at 37 °C. Finally, cell viability was analyzed by crystal violet staining.

[4] = system: HCT116 (low Pgp expression); experiment: Cell viability assay (crystal violet staining), payloads, HCT116; format: cell-based; conditions: HCT116, 48 hours incubation
Protocol: as §1

[5] = target: T1, Fibroblast activation protein (FAP) on FAP-expressing HT1080-FAP cells (UniProt Q12884 1-760, limits assumed); experiment: cell-based or functional assay
T1 sequence (looked up): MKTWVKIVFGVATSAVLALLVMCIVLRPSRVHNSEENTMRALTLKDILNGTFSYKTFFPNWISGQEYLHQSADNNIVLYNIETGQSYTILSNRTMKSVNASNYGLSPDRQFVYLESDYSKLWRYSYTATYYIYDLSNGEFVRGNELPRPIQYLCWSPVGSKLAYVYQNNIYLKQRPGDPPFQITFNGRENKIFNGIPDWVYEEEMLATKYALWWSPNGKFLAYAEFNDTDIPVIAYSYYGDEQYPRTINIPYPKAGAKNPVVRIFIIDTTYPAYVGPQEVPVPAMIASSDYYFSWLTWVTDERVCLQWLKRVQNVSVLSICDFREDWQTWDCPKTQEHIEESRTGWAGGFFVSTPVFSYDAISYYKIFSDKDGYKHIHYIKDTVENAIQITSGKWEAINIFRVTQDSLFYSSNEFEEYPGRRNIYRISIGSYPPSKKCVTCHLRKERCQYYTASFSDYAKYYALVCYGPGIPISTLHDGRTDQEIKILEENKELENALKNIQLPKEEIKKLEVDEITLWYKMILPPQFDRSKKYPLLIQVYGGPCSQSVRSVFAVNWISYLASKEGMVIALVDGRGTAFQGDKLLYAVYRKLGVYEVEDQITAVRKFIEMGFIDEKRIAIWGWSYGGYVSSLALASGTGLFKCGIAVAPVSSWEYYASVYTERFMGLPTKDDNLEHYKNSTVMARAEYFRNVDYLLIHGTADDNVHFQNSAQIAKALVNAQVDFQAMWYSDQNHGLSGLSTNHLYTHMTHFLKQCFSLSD

[6] = target: T1, Fibroblast activation protein (FAP) on …; experiment: flow cytometry on HT1080-FAP cells, PE-labeled anti-human Fc secondary antibody, MFI
HT1080-FAP cells = experiment: ADC cytotoxic activity, cell viability assay, HT1080-FAP; format: cell-based
Protocol: (§2) OMTX105 cytotoxic activity was analyzed via cell viability assay using HT1080-FAP and HT1080-WT cells. […] Here, a concentration of half-maximal killing of 64 pM for OMTX105 was determined compared to 750 pM for OMTX705. […] Specificity ratio between both cell lines was 1,205 for OMTX105 while for OMTX705 the value was 82 (Figure 3). Table 4: Comparative in vitro binding and cytotoxic activity values of OMTX105 and OMTX705 ADCs

HT1080-WT cells = experiment: ADC cytotoxic activity, cell viability assay, HT1080-WT; format: cell-based; conditions: read-out: Concentration of half maximal killing HT1080 WT
Protocol: as §2

[7] = system: HT1080-FAP transfected cells; experiment: In vivo efficacy and tolerability in the HT1080-FAP tumor model with huPBMCs; parameters: species or system female NOD scid gamma (NSG) mice
Protocol: To evaluate the in vivo efficacy of OMTX1 05 and OMTX705, both ADCs were tested in female NOD scid gamma (NSG) mice co-inoculated with HT1080-FAP transfected cells and huPBMCs.
After 7 days, mice were randomized according to tumor size in the different treatment groups. Treatments with OMTX105 and OMTX705 as single agents were initiated, both with a weekly intravenous dose of 20 mg/kg over 3 weeks.
Tumor volume and animal weight were measured 3 times a week to monitor the evolution of tumor growth and weight change upon treatment.

[8] = system: Panc007 pancreatic ductal adenocarcinoma patient derived xenograft; experiment: In vivo efficacy and tolerability in the Panc007 patient-derived xenograft model; parameters: species or system female Athymic nude-Foxn1 (nude/nude) mice; conditions: for TGI value: day 28
Protocol: The antitumor activity of OMTX105 vs OMTX705 was evaluated in the Panc007 pancreatic ductal adenocarcinoma patient derived xenograft mode in female Athymic nude-Foxn1 (nude/nude) mice.
Both OMTX105 and OMTX705 were administered intravenously at 5 and 20 mg/kg once a week for 4 weeks.

[9] = weekly intravenous dose of 20 mg/kg over 3 weeks
[10] = 5 and 20 mg/kg intravenously once a week for 4 weeks

Molecule “OMTX705 antibody-drug conjugate (anti-FAP monoclonal antibody conjugated to a cytolysin payload)” has a Concentration of half maximal killing, HT1080FAP (cell viability assay) [1] of 750 pM, a Specificity ratio between HT1080WT and HT1080FAP (cell viability assay) [1] of 82 and an EC50 [2] of 0.204 nM.

Molecule `CC[C@H](C)[C@@H]([C@@H](CC(=O)N1CCC[C@H]1[C@H](OC)[C@@H](C)C(=O)N[C@H](C)[C@@H](O)c1ccccc1)OC)N(C)C(=O)[C@@H](NC(=O)[C@@H](NC)C(C)C)C(C)C` [MMAE, Monomethyl auristatin E] (H-[NMeV]V[Dil][Dolaproine]-X1) has an IC50 [3] of 39.5 ± 10.1 nM, an IC50 ([3]; Homo sapiens, HCT-15, 48 h) of 40 nM and an IC50 [4] of 2.5 ± 0.4 nM. It also gave an IC50 ([4]; Homo sapiens, HCT-116, 48 h) of 3 nM.

B1: OMTX105 antibody-drug conjugate (anti-FAP IgG antibody conjugated with the drug-linker vcMMAE) (antibody, V domains shown)
VH: QVQLVQSGAEVKKPGASVKVSCKASGYTFTENIIHWVRQAPGQGLEWMGWFHPGSGSIKYNEKFKDRVTMTADTSTSTVYMELSSLRSEDTAVYYCARHGGTGRGAMDYWGQGTLVTVSS
VL: DIQMTQSPSSLSASVGDRVTITCRASKSVSTSAYSYMHWYQQKPGKAPKLLIYLASNLESGVPSRFSGSGSGTDFTLTISSLQPEDFATYYCQHSRELPYTFGQGTKLEIKR
modifications: drug-linker vcMMAE on cysteine residues of the antibody (non-site specific, thiol-based); DAR 3.92; the cysteines are not stated
notes: also called OMTX105 ADC; anti-FAP MMAE ADC
With B1 the “Specificity ratio between HT1080WT and HT1080FAP (cell viability assay)” value [5] was 1200 and the EC50 [6] was 0.255 nM.

B2: OMTX105: anti-FAP IgG antibody conjugated with the drug-linker vcMMAE, through thiol-based reaction on the cysteine residues of the antibody (conjugate)
heavy: QVQLVQSGAEVKKPGASVKVSCKASGYTFTENIIHWVRQAPGQGLEWMGWFHPGSGSIKYNEKFKDRVTMTADTSTSTVYMELSSLRSEDTAVYYCARHGGTGRGAMDYWGQGTLVTVSSASTKGPSVFPLAPSSKSTSGGTAALGCLVKDYFPEPVTVSWNSGALTSGVHTFPAVLQSSGLYSLSSVVTVPSSSLGTQTYICNVNHKPSNTKVDKKVEPKSCDKTHTCPPCPAPPVAGPSVFLFPPKPKDTLMISRTPEVTCVVVDVSHEDPEVKFNWYVDGVEVHNAKTKPREEQYNSTYRVVSVLTVLHQDWLNGKEYKCKVSNKGLPSSIEKTISKAKGQPREPQVYTLPPSRDELTKNQVSLTCLVKGFYPSDIAVEWESNGQPENNYKTTPPVLDSDGSFFLYSKLTVDKSRWQQGNVFSCSVMHEALHNHYTQKSLSLSPGK
light: DIQMTQSPSSLSASVGDRVTITCRASKSVSTSAYSYMHWYQQKPGKAPKLLIYLASNLESGVPSRFSGSGSGTDFTLTISSLQPEDFATYYCQHSRELPYTFGQGTKLEIKRTVAAPSVFIFPPSDEQLKSGTASVVCLLNNFYPREAKVQWKVDNALQSGNSQESVTEQDSKDSTYSLSSTLTLSKADYEKHKVYACEVTHQGLSSPVTKSFNRGEC
In the case of B2, the EC50 (HT1080-FAP cells; HT1080-FAP cells, read-out: Concentration of half maximal killing HT1080FAP) is reported as 0.064 ± 0.033 nM, the “Specificity ratio between HT1080WT and HT1080FAP” value (HT1080-FAP cells; ratio of half maximal killing concentrations, HT1080-WT to HT1080-FAP) is reported as 1,205 and the EC50 (HT1080-WT cells) is reported as 77.2 nM. For the same molecule, the tolerability ([7]; 20 mg/kg, 21-day test period) was “well tolerated”, the complete response [7, 9] was “complete response in this model at day 7” and the “percentage tumor growth inhibition (TGI)” value [7, 9] was 104.98%. The “weight loss, toxic effect” value ([7]; weekly intravenous dose of 20 mg/kg, 21-day test period) was “No weight loss, nor toxic effect”, the TGI value ([8]; 5 mg/kg intravenously once a week for 4 weeks) was 85% and the TGI value ([8]; 20 mg/kg intravenously once a week for 4 weeks) was 136%. For the same molecule, the “adverse effects or animal death” value [8, 10] was “no adverse effects or animal death”, the “tolerability (body weight data and clinical observations)” value [8, 10] was “well tolerated” and the weight loss ([8]; both 5 mg/kg and 20 mg/kg, after 56 days) was “no weight loss observed”.

Source: EP4616869A1, “FAP TARGETED ANTIBODY-DRUG CONJUGATES” (Oncomatryx Biopharma, S.L., priority 2024, dated 2025)
